B1: VTI1B (parent)
chain: ANETLAEMEEELRYAPLSFRNPMM
B2: FANCE (parent)
chain: AQVLMLGQILELPWKEETFLVLQS

Variants of: B1
Assay: protein stability index of a GFP-peptide fusion (GPS, HEK-293T) (PSI 1-6); higher = more stable
Details: c terminus: a fixed tail appended
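Note: lentivirally expressed fusions sorted by FACS into six bins by GFP to DsRed ratio, PSI derived from sequencing read proportions per bin multiplied by bin number.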

| Variant | protein stability index |
| --- | --- |
| A1D | 2.69 |
| A1R | 1.46 |
| A1K | 2.04 |
| A1E | 2.72 |
| A1G | 3.02 |
| A1H | 2.16 |
| A1V | 1.34 |
| A1Q | 1.92 |
| A1F | 1.81 |
| A1N | 2.27 |
| A1S | 2.49 |
| A1C | 2.39 |
| A1M | 2.65 |
| A1W | 2.82 |
| A1P | 2.37 |
| A1L | 2.14 |
| A1I | 1.91 |
| A1Y | 2.54 |
| A1T | 2.36 |

| Variant | protein stability index |
| --- | --- |
| N2Q | 2.27 |
| N2C | 2.13 |
| N2H | 2.9 |
| N2L | 2.58 |
| N2A | 2.91 |
| N2T | 2.19 |
| N2Y | 2.05 |
| N2I | 2.53 |
| N2P | 2.52 |
| N2G | 2.01 |
| N2R | 1.26 |
| N2W | 1.06 |
| N2S | 1.94 |
| E3A | 2.18 |
| E3G | 2.51 |
| E3D | 2.97 |
| E3F | 1.96 |
| E3H | 2.43 |
| E3C | 2.01 |

Variants of: B2
Assay: as above
Details: c terminus: a fixed tail appended

| Variant | protein stability index |
| --- | --- |
| E11I | 1.47 |
| E11H | 1.11 |
| E11V | 3.41 |
| E11M | 5.04 |
| E11T | 2.47 |
| E11C | 5.4 |
| E11P | 3.01 |
| E11L | 1.81 |
| E11F | 3.3 |
| E11A | 4.02 |
| E11Y | 3.17 |
| E11D | 3.64 |
| E11K | 2.65 |
| E11G | 2.17 |
| E11R | 2.01 |
| F19S | 1.75 |
| F19E | 2.25 |
| F19P | 1.55 |
| F19C | 1.54 |
| F19G | 2.11 |
| F19M | 2.68 |
| F19T | 1.56 |
| F19V | 2.48 |
| F19Y | 2.24 |
| F19R | 2.1 |

| Variant | protein stability index |
| --- | --- |
| F19K | 1.53 |
| F19Q | 1.51 |
| F19W | 1.88 |
| F19N | 2.02 |
| F19H | 3.46 |
| F19D | 2.53 |
| F19A | 1.77 |
| L22Q | 2.08 |
| L22Y | 2.56 |
| L22H | 2.08 |
| L22W | 2.86 |
| L22V | 1.7 |
| L22A | 2.06 |
| L22T | 1.61 |
| L22F | 2.29 |
| L22K | 2.14 |
| L22N | 1.47 |
| L22D | 1.49 |
| L22S | 1.13 |
| L22M | 2.5 |
| L22R | 1.63 |
| L22G | 3.21 |
| L22E | 2 |
| L12E | 2.39 |
| L12Q | 2.95 |

| Variant | protein stability index |
| --- | --- |
| L12R | 3.1 |
| L12T | 2.91 |
| L12P | 4.52 |
| L12D | 2.26 |
| L12N | 1.94 |
| L12G | 3.1 |
| L12M | 3.18 |
| L12Y | 2.6 |
| L12H | 2.4 |
| L12K | 2.57 |
| L12I | 2.49 |
| L12S | 2.69 |
| L12A | 3.6 |
| L12W | 2.1 |
| L12F | 2.48 |
| L12C | 3.49 |
| M5Y | 2.58 |
| M5V | 3.14 |
| M5N | 2.12 |
| M5W | 2.56 |
| M5K | 1.8 |
| M5Q | 1.76 |
| M5L | 2.3 |
| M5R | 1.78 |
| M5T | 1.72 |

| Variant | protein stability index |
| --- | --- |
| M5P | 1.79 |
| M5S | 1.68 |
| L10E | 1.94 |
| L10P | 2.35 |
| L10Y | 4.15 |
| L10A | 1.81 |
| L10S | 3 |
| L10N | 1.88 |
| L10T | 2.28 |
| L10K | 2.04 |
| L10D | 1.78 |
| L10H | 3.55 |
| L10M | 2.01 |
| L10G | 2.19 |
| L10F | 3.56 |
| L10R | 3.13 |
| E16T | 3.35 |
| E16M | 2.5 |
| E16F | 4.03 |
| E16D | 1.67 |
| E16V | 3.46 |
| E16H | 3.11 |
| E16Y | 3.33 |
| E16L | 3.01 |
| E16K | 2.78 |

| Variant | protein stability index |
| --- | --- |
| E16N | 2.23 |
| E16A | 3.98 |
| E16R | 1.97 |
| E16G | 2.03 |
| E16Q | 3.56 |
| P13I | 2.77 |
| P13W | 3.76 |
| P13C | 4.64 |
| P13Q | 2.39 |
| P13D | 2.95 |
| P13F | 3.35 |
| P13L | 2.2 |
| P13Y | 2.88 |
| P13N | 3.19 |
| P13H | 2.19 |
| P13A | 5.32 |
| P13K | 2.57 |
| K15D | 2.01 |
| K15W | 2.14 |
| K15Q | 1.47 |
| K15Y | 5.17 |
| K15N | 1.94 |
| K15M | 2.91 |
| K15S | 2.58 |
| K15E | 2.32 |

| Variant | protein stability index |
| --- | --- |
| K15F | 2.52 |
| K15V | 5.16 |
| K15T | 3.16 |
| K15A | 2.06 |
| K15L | 2.82 |
| K15H | 3.52 |
| K15P | 4.32 |
| E17L | 2.23 |
| E17Y | 5.43 |
| E17D | 3.79 |
| E17K | 3.12 |
| E17Q | 3.48 |
| E17H | 3.21 |
| E17G | 4.35 |
| E17R | 1.48 |
| E17M | 2.08 |
| E17N | 4.33 |
| E17F | 1.89 |
| E17A | 2.43 |
| E17V | 4.49 |
| Q23P | 3.09 |
| Q23F | 1.91 |
| Q23T | 2.41 |
| Q23A | 3.11 |
| Q23C | 4.36 |

| Variant | protein stability index |
| --- | --- |
| Q23D | 1.78 |
| Q23K | 3.22 |
| Q23N | 2.44 |
| Q23Y | 3.54 |
| Q23V | 2 |
| Q23G | 2.42 |
| Q23W | 3.42 |
| Q23M | 2.95 |
| Q23I | 2.18 |
| Q8H | 2.57 |
| Q8W | 2.25 |
| Q8T | 2.34 |
| Q8R | 2.63 |
| Q8M | 2.39 |
| Q8I | 4.26 |
| Q8S | 2.42 |
| Q8A | 2.48 |
| Q8L | 3.68 |
| Q8F | 2.51 |
| Q8Y | 3.2 |
| Q8G | 4.12 |
| Q8V | 3.43 |
| Q8E | 1.35 |
| S24Q | 1.69 |
| S24I | 5.17 |

| Variant | protein stability index |
| --- | --- |
| S24H | 2.58 |
| S24D | 1.83 |
| S24C | 2.6 |
| S24L | 3.04 |
| S24A | 1.88 |
| S24F | 2.67 |
| S24N | 3.35 |
| S24T | 2.51 |
| S24G | 2.41 |
| S24Y | 2.4 |
| S24K | 2.21 |
| S24W | 3.86 |
| S24R | 2.69 |
| S24E | 3.98 |
| G7D | 2.12 |
| G7P | 2.51 |
| G7V | 2.8 |
| G7I | 3.43 |
| G7F | 2.22 |
| G7Q | 2.19 |
| G7W | 3.13 |
| G7S | 2.32 |
| G7C | 2.25 |
| G7E | 3.09 |
| G7R | 4.09 |

| Variant | protein stability index |
| --- | --- |
| G7N | 2.85 |
| L20D | 1.6 |
| L20Y | 3.73 |
| L20R | 2.61 |
| L20E | 2.24 |
| L20M | 1.73 |
| L20K | 1.91 |
| L20V | 3 |
| L20W | 2.87 |
| L20H | 2.03 |
| L20P | 1.94 |
| L20G | 1.81 |
| L20I | 2.31 |
| L20T | 1.76 |
| L20Q | 2.98 |
| L20N | 2.56 |
| L20S | 2.3 |
| L20C | 1.48 |
| L20A | 3.76 |
| I9M | 2.82 |
| I9P | 2.75 |
| I9T | 2.91 |
| I9K | 1.6 |
| I9F | 3.22 |
| I9E | 1.63 |

| Variant | protein stability index |
| --- | --- |
| I9N | 1.7 |
| I9S | 2.09 |
| I9Q | 1.68 |
| I9R | 2.46 |
| I9G | 1.73 |
| I9H | 2.26 |
| I9C | 2.36 |
| I9D | 2.85 |
| I9A | 3.41 |
| I9L | 3.3 |
| V21Y | 3.3 |
| V21K | 2.9 |
| V21Q | 2.54 |
| V21G | 3.02 |
| V21N | 2.3 |
| V21H | 1.77 |
| V21R | 3.15 |
| V21C | 3.25 |
| V21D | 2.08 |
| V21I | 2.06 |
| V21P | 2.17 |
| V21F | 2.56 |
| V21W | 2.4 |
| V21T | 3.45 |
| V21S | 2.05 |

| Variant | protein stability index |
| --- | --- |
| V21E | 2.57 |
| V21A | 3.08 |
| W14S | 3.07 |
| W14G | 2.07 |
| W14N | 3.44 |
| W14E | 2.01 |
| W14C | 2.55 |
| W14P | 1.83 |
| W14H | 3.52 |
| W14D | 1.58 |
| W14L | 2.21 |
| W14I | 2.95 |
| W14K | 1.96 |
| W14F | 2.72 |
| W14R | 4.06 |
| W14Y | 2.51 |
| W14T | 2.08 |
| T18A | 1.7 |
| T18R | 4.64 |
| T18Q | 2.45 |
| T18M | 2.92 |
| T18G | 3.68 |
| T18P | 1.79 |
| T18F | 3.58 |
| T18D | 1.84 |

| Variant | protein stability index |
| --- | --- |
| T18S | 2.84 |
| T18H | 3.02 |
| T18L | 2.16 |
| T18Y | 2.29 |
| T18N | 4.29 |
| L6Y | 3.4 |
| L6D | 2.3 |
| L6Q | 1.63 |
| L6H | 3.74 |
| L6C | 3.67 |
| L6I | 3.28 |
| L6R | 1.13 |
| L6F | 2.61 |
| L6G | 2.17 |
| L6W | 2.46 |
| L6S | 2.7 |
| L6T | 2.23 |
| L6K | 3.18 |
| L6A | 1.48 |
| L6E | 1.44 |
| L6P | 1.53 |
